The experiment concerns the target T1, beta-catenin (Homo sapiens, UniProt P35222).
T1 construct: made in house; host or cells: E. coli BL21 (DE3) pLysS
T1 sequence (P35222 134-665): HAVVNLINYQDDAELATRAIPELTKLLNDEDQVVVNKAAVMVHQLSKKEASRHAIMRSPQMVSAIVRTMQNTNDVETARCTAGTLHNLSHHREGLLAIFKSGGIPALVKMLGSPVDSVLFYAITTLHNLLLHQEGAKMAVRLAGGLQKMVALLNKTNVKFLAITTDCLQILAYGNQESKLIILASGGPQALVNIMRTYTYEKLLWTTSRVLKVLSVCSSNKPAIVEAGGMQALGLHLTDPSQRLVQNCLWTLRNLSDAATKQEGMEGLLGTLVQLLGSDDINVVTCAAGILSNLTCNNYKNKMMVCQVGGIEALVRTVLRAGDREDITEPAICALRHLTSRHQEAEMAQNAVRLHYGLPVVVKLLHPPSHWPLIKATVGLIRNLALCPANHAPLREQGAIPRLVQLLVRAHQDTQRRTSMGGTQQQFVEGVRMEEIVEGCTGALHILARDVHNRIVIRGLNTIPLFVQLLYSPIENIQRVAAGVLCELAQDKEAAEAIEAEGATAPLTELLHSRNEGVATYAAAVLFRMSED
Description: Phage Library Screening with NGS, beta-catenin. In kind it is binding. The following applies: for Target Concentration 10 (phage screen NGS readout): beta-catenin target concentration 10; for Target Concentration 10 (phage screen NGS readout) / Target Concentration 30 (phage screen NGS readout) / Target Concentration 100 (phage screen NGS readout) / Target Concentration 300 (phage screen NGS readout): no competitor; for Target Concentration 30 (phage screen NGS readout): beta-catenin target concentration 30; for Target Concentration 100 (phage screen NGS readout): beta-catenin target concentration 100; for Target Concentration 300 (phage screen NGS readout): beta-catenin target concentration 300; for Target Concentration 1000 (phage screen NGS readout): beta-catenin target concentration 1000.

DPAEAECILAAHICNIS: the “Target Concentration 10 (phage screen NGS readout)” value worked out at 10, the “Target Concentration 30 (phage screen NGS readout)” value is 0, the “Target Concentration 100 (phage screen NGS readout)” value came to 37 and the “Target Concentration 300 (phage screen NGS readout)” value amounted to 39. In addition, for the setting “first column”, the “Target Concentration BLANK (phage screen NGS readout)” value (“Target Concentration BLANK” below) is 0. Moreover, the “Target Concentration BLANK” value (fourth column) came to 0. Moreover, the “Target Concentration BLANK” value (second column) is 0. Moreover, the “Target Concentration BLANK” value (third column) came out at 0. Further, where the note is “first 1000 column”, the “Target Concentration 1000 (phage screen NGS readout)” value worked out at 51. Under “second 1000 column”, the “Target Concentration 1000 (phage screen NGS readout)” value came out at 52.

Turning to DPAVFECSLAAIDCLQI, the “Target Concentration 10 (phage screen NGS readout)” value amounted to 0, the “Target Concentration 30 (phage screen NGS readout)” value came out at 0, the “Target Concentration 100 (phage screen NGS readout)” value was determined as 10 and the “Target Concentration 300 (phage screen NGS readout)” value is reported as 28. Further, the “Target Concentration BLANK” value (first column) is reported as 0. Moreover, the “Target Concentration BLANK” value (fourth column) came out at 0. In addition, the “Target Concentration BLANK” value (second column) is given as 0. The “Target Concentration BLANK” value (third column) amounted to 0. Besides, the “Target Concentration 1000 (phage screen NGS readout)” value (first 1000 column) amounted to 10. In addition, for the setting “second 1000 column”, the “Target Concentration 1000 (phage screen NGS readout)” value is recorded as 81.

With DPAQFYCEHAALLCRWE, the “Target Concentration 10 (phage screen NGS readout)” value is listed as 0, the “Target Concentration 30 (phage screen NGS readout)” value is on record as 0, the “Target Concentration 100 (phage screen NGS readout)” value is 5 and the “Target Concentration 300 (phage screen NGS readout)” value amounted to 11. The “Target Concentration BLANK” value (first column) was found to be 0. Also, the “Target Concentration BLANK” value (fourth column) was determined as 0. Also, the “Target Concentration BLANK” value (second column) is 0. Besides, the “Target Concentration BLANK” value (third column) is recorded as 0. For the same sequence, the “Target Concentration 1000 (phage screen NGS readout)” value (first 1000 column) came out at 15. Further, the “Target Concentration 1000 (phage screen NGS readout)” value (second 1000 column) was 11.

Turning to DPAILDCQLAAIDCVYT, the “Target Concentration 10 (phage screen NGS readout)” value was 3, the “Target Concentration 30 (phage screen NGS readout)” value is on record as 21, the “Target Concentration 100 (phage screen NGS readout)” value amounted to 67 and the “Target Concentration 300 (phage screen NGS readout)” value is listed as 168. Also, the “Target Concentration BLANK” value (first column) worked out at 0. Also, the “Target Concentration BLANK” value (fourth column) is recorded as 0. Also, the “Target Concentration BLANK” value (second column) is given as 0. The “Target Concentration BLANK” value (third column) amounted to 0. Besides, the “Target Concentration 1000 (phage screen NGS readout)” value (first 1000 column) was 201. In addition, where the note is “second 1000 column”, the “Target Concentration 1000 (phage screen NGS readout)” value was 114.

As for DPAQQDCTLAAHVCRVF, the “Target Concentration 10 (phage screen NGS readout)” value came to 0, the “Target Concentration 30 (phage screen NGS readout)” value is on record as 0, the “Target Concentration 100 (phage screen NGS readout)” value amounted to 19 and the “Target Concentration 300 (phage screen NGS readout)” value worked out at 21. For the same sequence, where the note is “first column”, the “Target Concentration BLANK” value is 0. Also, under “fourth column”, the “Target Concentration BLANK” value turned out to be 0. Besides, where the note is “second column”, the “Target Concentration BLANK” value was determined as 0. Moreover, the “Target Concentration BLANK” value (third column) stood at 0. The “Target Concentration 1000 (phage screen NGS readout)” value (first 1000 column) is given as 70. Besides, for the setting “second 1000 column”, the “Target Concentration 1000 (phage screen NGS readout)” value is on record as 11.

Regarding DPATIRCYEAAFMCQYW, the “Target Concentration 10 (phage screen NGS readout)” value was found to be 0, the “Target Concentration 30 (phage screen NGS readout)” value was found to be 0, the “Target Concentration 100 (phage screen NGS readout)” value was found to be 3 and the “Target Concentration 300 (phage screen NGS readout)” value is 34. Where the note is “first column”, the “Target Concentration BLANK” value turned out to be 0. Further, where the note is “fourth column”, the “Target Concentration BLANK” value worked out at 0. Further, where the note is “second column”, the “Target Concentration BLANK” value amounted to 0. For the same sequence, the “Target Concentration BLANK” value (third column) was found to be 0. For the same sequence, where the note is “first 1000 column”, the “Target Concentration 1000 (phage screen NGS readout)” value is listed as 21. The “Target Concentration 1000 (phage screen NGS readout)” value (second 1000 column) is recorded as 38.

For DPAEWACEHAALTCWDQ, the “Target Concentration 10 (phage screen NGS readout)” value turned out to be 6, the “Target Concentration 30 (phage screen NGS readout)” value is given as 24, the “Target Concentration 100 (phage screen NGS readout)” value amounted to 148 and the “Target Concentration 300 (phage screen NGS readout)” value worked out at 448. In addition, the “Target Concentration BLANK” value (first column) is 1. The “Target Concentration BLANK” value (fourth column) was 0. Further, where the note is “second column”, the “Target Concentration BLANK” value came out at 4. The “Target Concentration BLANK” value (third column) was 0. For the setting “first 1000 column”, the “Target Concentration 1000 (phage screen NGS readout)” value came to 431. Besides, the “Target Concentration 1000 (phage screen NGS readout)” value (second 1000 column) was found to be 449.

Consider DPAVLDCHIAALDCHAH, for which the “Target Concentration 10 (phage screen NGS readout)” value turned out to be 0, the “Target Concentration 30 (phage screen NGS readout)” value came to 1, the “Target Concentration 100 (phage screen NGS readout)” value stood at 0 and the “Target Concentration 300 (phage screen NGS readout)” value was found to be 10. The “Target Concentration BLANK” value (first column) was 0. Moreover, the “Target Concentration BLANK” value (fourth column) is reported as 0. Also, under “second column”, the “Target Concentration BLANK” value came out at 0. Moreover, the “Target Concentration BLANK” value (third column) worked out at 0. For the setting “first 1000 column”, the “Target Concentration 1000 (phage screen NGS readout)” value came out at 39. In addition, the “Target Concentration 1000 (phage screen NGS readout)” value (second 1000 column) was 3.

In the case of DPAEADCMMAAHICSNI, the “Target Concentration 10 (phage screen NGS readout)” value was determined as 0, the “Target Concentration 30 (phage screen NGS readout)” value turned out to be 0, the “Target Concentration 100 (phage screen NGS readout)” value is 21 and the “Target Concentration 300 (phage screen NGS readout)” value was 15. The “Target Concentration BLANK” value (first column) stood at 0. For the setting “fourth column”, the “Target Concentration BLANK” value is given as 0. In addition, the “Target Concentration BLANK” value (second column) was determined as 0. The “Target Concentration BLANK” value (third column) was 0. Besides, under “first 1000 column”, the “Target Concentration 1000 (phage screen NGS readout)” value is on record as 46. Besides, the “Target Concentration 1000 (phage screen NGS readout)” value (second 1000 column) was 22.

In the case of DPAQWACEHAALLCSMD, the “Target Concentration 10 (phage screen NGS readout)” value is listed as 6, the “Target Concentration 30 (phage screen NGS readout)” value stood at 35, the “Target Concentration 100 (phage screen NGS readout)” value was 226 and the “Target Concentration 300 (phage screen NGS readout)” value was determined as 419. Moreover, for the setting “first column”, the “Target Concentration BLANK” value was 0. For the same sequence, under “fourth column”, the “Target Concentration BLANK” value is 0. Further, for the setting “second column”, the “Target Concentration BLANK” value stood at 1. Where the note is “third column”, the “Target Concentration BLANK” value was 0. Also, where the note is “first 1000 column”, the “Target Concentration 1000 (phage screen NGS readout)” value was determined as 326. For the same sequence, the “Target Concentration 1000 (phage screen NGS readout)” value (second 1000 column) is 432.

In the case of DPAVQDCEWAAIYCELI, the “Target Concentration 10 (phage screen NGS readout)” value was 0, the “Target Concentration 30 (phage screen NGS readout)” value came out at 9, the “Target Concentration 100 (phage screen NGS readout)” value is reported as 10 and the “Target Concentration 300 (phage screen NGS readout)” value is 158. Moreover, the “Target Concentration BLANK” value (first column) was 0. Moreover, the “Target Concentration BLANK” value (fourth column) is 1. For the same sequence, the “Target Concentration BLANK” value (second column) is 1. Besides, the “Target Concentration BLANK” value (third column) is 0. The “Target Concentration 1000 (phage screen NGS readout)” value (first 1000 column) is reported as 104. The “Target Concentration 1000 (phage screen NGS readout)” value (second 1000 column) worked out at 157.

In the case of DPAILECHMAAFECYIE, the “Target Concentration 10 (phage screen NGS readout)” value is reported as 8, the “Target Concentration 30 (phage screen NGS readout)” value came out at 2, the “Target Concentration 100 (phage screen NGS readout)” value was 20 and the “Target Concentration 300 (phage screen NGS readout)” value is 59. Where the note is “first column”, the “Target Concentration BLANK” value is 0. For the same sequence, the “Target Concentration BLANK” value (fourth column) is listed as 0. Besides, the “Target Concentration BLANK” value (second column) is given as 0. Besides, the “Target Concentration BLANK” value (third column) came to 0. In addition, the “Target Concentration 1000 (phage screen NGS readout)” value (first 1000 column) was 86. Besides, the “Target Concentration 1000 (phage screen NGS readout)” value (second 1000 column) is on record as 41.

For DPAIFNCTMAALECTQI, the “Target Concentration 10 (phage screen NGS readout)” value is listed as 0, the “Target Concentration 30 (phage screen NGS readout)” value is reported as 0, the “Target Concentration 100 (phage screen NGS readout)” value worked out at 2 and the “Target Concentration 300 (phage screen NGS readout)” value amounted to 3. The “Target Concentration BLANK” value (first column) turned out to be 0. Further, where the note is “fourth column”, the “Target Concentration BLANK” value came out at 0. For the same sequence, the “Target Concentration BLANK” value (second column) is 0. In addition, the “Target Concentration BLANK” value (third column) is 0. Also, under “first 1000 column”, the “Target Concentration 1000 (phage screen NGS readout)” value worked out at 19. Also, the “Target Concentration 1000 (phage screen NGS readout)” value (second 1000 column) was 0.

In the case of DPAEAICILAAHECWWD, the “Target Concentration 10 (phage screen NGS readout)” value is given as 19, the “Target Concentration 30 (phage screen NGS readout)” value is listed as 38, the “Target Concentration 100 (phage screen NGS readout)” value came to 139 and the “Target Concentration 300 (phage screen NGS readout)” value was found to be 235. In addition, the “Target Concentration BLANK” value (first column) turned out to be 0. For the same sequence, where the note is “fourth column”, the “Target Concentration BLANK” value came to 0. In addition, for the setting “second column”, the “Target Concentration BLANK” value was found to be 0. For the same sequence, the “Target Concentration BLANK” value (third column) stood at 0. The “Target Concentration 1000 (phage screen NGS readout)” value (first 1000 column) turned out to be 322. For the same sequence, the “Target Concentration 1000 (phage screen NGS readout)” value (second 1000 column) was found to be 228.

For the origin of these results see US20240376151A1, “STAPLED PEPTIDES AND METHODS THEREOF” (FOG PHARMACEUTICALS, INC., priority 2022, published 2024).
